Laboratory results taken from PMC8447599.

Key:
[1] = target: HoxA without the hydrophobic C-terminal membrane anchor (HoxA∆CTA), Strep-tagged (Alternaria alternata); test: SEC
[2] = target: Apo-PGP (photosensory domain of FphA without chromophore) (A. nidulans); test: BLI
[3] = target: Holo-PGP (chromophore-loaded photosensory domain of FphA) (A. nidulans); test: BLI

## HoxA without the hydrophobic C-terminal membrane anchor (HoxA∆CTA), Strep-tagged (domain or fragment)
[1]
  stoichiometry N: 2
[2]
  Kd: 0.00113 mM
[3]
  Kd: 64.6 mM
